Values of other authors, collected in patent US20090053180A1, “Tandem cardiac pacemaker system” (priority 2005, published 2009).

Tested on: cell-free patches from Xenopus oocytes
Settings: cited from earlier work

B1: HCN1: HCN1 isoform of hyperpolarization-activated, cyclic nucleotide-gated ion channel (protein, UniProt O60741 1-890, looked up)
Potassium/sodium …: MEGGGKPNSSSNSRDDGNSVFPAKASATGAGPAAAEKRLGTPPGGGGAGAKEHGNSVCFKVDGGGGGGGGGGGGEEPAGGFEDAEGPRRQYGFMQRQFTSMLQPGVNKFSLRMFGSQKAVEKEQERVKTAGFWIIHPYSDFRFYWDLIMLIMMVGNLVIIPVGITFFTEQTTTPWIIFNVASDTVFLLDLIMNFRTGTVNEDSSEIILDPKVIKMNYLKSWFVVDFISSIPVDYIFLIVEKGMDSEVYKTARALRIVRFTKILSLLRLLRLSRLIRYIHQWEEIFHMTYDLASAVVRIFNLIGMMLLLCHWDGCLQFLVPLLQDFPPDCWVSLNEMVNDSWGKQYSYALFKAMSHMLCIGYGAQAPVSMSDLWITMLSMIVGATCYAMFVGHATALIQSLDSSRRQYQEKYKQVEQYMSFHKLPADMRQKIHDYYEHRYQGKIFDEENILNELNDPLREEIVNFNCRKLVATMPLFANADPNFVTAMLSKLRFEVFQPGDYIIREGAVGKKMYFIQHGVAGVITKSSKEMKLTDGSYFGEICLLTKGRRTASVRADTYCRLYSLSVDNFNEVLEEYPMMRRAFETVAIDRLDRIGKKNSILLQKFQKDLNTGVFNNQENEILKQIVKHDREMVQAIAPINYPQMTTLNSTSSTTTPTSRMRTQSPPVYTATSLSHSNLHSPSPSTQTPQPSAILSPCSYTTAVCSPPVQSPLAARTFHYASPTASQLSLMQQQPQQQVQQSQPPQTQPQQPSPQPQTPGSSTPKNEVHKSTQALHNTNLTREVRPLSASQPSLPHEVSTLISRPHPTVGESLASIPQPVTAVPGTGLQAGGRSTVPQRVTLFRQMSSGAIPPNRGVPPAPPPPAAALPRESSSVLNTDPDAEKPRFASNL
shift of activation curve to more positive potentials by cAMP: 4 mV
